Several values for one entry are separate records, joined by “and”; a condition that tells them apart may be missing. Equal entries are not always repeated.

Assay [1] addresses wild-type rat Neurotensin Receptor 1 (rNTSR1) (rat) (UniProt P20789). As to the kind of experiment: radioligand binding.
Assay [2] has as its target wild-type human Neurotensin Receptor 1 (hNTSR1) (human) (UniProt P30989). As to the kind of experiment: radioligand binding.

Chain of wild-type rat Neurotensin Receptor 1 (rNTSR1) (rat) (P20789 whole entry): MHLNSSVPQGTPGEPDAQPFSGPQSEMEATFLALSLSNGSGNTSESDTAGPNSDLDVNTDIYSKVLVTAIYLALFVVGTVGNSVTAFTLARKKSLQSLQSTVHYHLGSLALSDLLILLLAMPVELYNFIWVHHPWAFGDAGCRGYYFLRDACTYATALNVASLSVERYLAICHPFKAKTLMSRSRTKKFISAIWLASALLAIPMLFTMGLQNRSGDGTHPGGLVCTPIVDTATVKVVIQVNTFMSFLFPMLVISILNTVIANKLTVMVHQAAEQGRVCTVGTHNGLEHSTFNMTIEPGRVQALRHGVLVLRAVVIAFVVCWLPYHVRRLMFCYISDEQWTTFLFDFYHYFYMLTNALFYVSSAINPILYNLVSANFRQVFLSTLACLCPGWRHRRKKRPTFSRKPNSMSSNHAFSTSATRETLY
Chain of wild-type human Neurotensin Receptor 1 (hNTSR1) (human) (P30989 whole entry): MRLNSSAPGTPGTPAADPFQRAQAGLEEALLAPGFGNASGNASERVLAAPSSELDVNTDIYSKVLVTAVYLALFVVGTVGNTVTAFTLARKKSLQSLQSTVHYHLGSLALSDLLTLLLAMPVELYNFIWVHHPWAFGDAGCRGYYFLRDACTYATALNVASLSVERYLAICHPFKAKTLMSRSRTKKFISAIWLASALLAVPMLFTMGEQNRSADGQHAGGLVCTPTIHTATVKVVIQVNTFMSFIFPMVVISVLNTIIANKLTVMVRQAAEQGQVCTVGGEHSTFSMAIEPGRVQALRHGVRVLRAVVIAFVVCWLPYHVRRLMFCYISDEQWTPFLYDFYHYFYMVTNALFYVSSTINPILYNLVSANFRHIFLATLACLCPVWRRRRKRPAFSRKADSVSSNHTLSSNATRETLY

As to [3H]Neurotensin (peptide), the Kd in assay [1] was 2.3 nM and 0.67 nM; in assay [2] it was 2.14 nM and 0.92 nM.

One may read the Kd as the equilibrium constant for the complex coming apart.

The record behind these values is doi:10.1101/2022.12.26.521971.
